In CN118388640A (CHENZHOU NO 1 PEOPLES HOSPITAL, dated 2024) one finds EC50 data, which are given here for one molecule.

For the assay, the target named is T1, SARS-CoV-2 Omicron BA.1突变株 S蛋白 (Sino Biological，货号:40589-V08B33) (SARS-CoV-2 Omicron BA.1突变株).
T1 construct: also called Omicron BA.1 S蛋白
Briefly: ELISA, S protein coated, antibody titrated from 10 μg/mL. For orientation: An ELISA detects its analyte on a solid surface through an enzyme-linked reagent.

B1: 抗新型冠状病毒SARS-CoV-2的广谱抗体(VSM12-37) (antibody, V domains shown)
VH: EVQLVESGGGLVQPGGSLRLSCAVSGFTVSSNYMSWVRQAPGKGLEWVSLIYSGGSTYYADSVKGRFTVSRDRSKNTLYLQMNSLRAEDTALYYCARDNPRVGSNYWGQGTLVTVSS
VL: DIQMTQSPSSLSASVGDRVTITCQASQDINNYLNWYQQKPGKAPKLLIYDASNLEAGVPSRFSGSGSGTDFTFTISSLQPEDIATYYCQQCDNVPLTFGGGTKVEIKR
notes: also called VSM12-37抗体
With B1, the EC50 (usually the concentration at which the effect is half-maximal) is more than 5 µg/mL.
